Earlier results in PMC3376167.

Biological target: ARNT PAS-B (Homo sapiens) (UniProt P27540)
Sequence (P27540 356-470): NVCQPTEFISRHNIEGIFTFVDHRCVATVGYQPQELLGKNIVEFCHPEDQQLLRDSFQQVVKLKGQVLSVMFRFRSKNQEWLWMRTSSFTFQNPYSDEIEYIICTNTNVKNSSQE

HIF-2α PAS-B, sequence (Q99814 239-350): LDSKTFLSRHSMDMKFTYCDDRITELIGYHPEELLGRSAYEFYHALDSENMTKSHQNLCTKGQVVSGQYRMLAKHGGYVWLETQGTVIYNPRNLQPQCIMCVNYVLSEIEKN

Kd: 120 µM
Substance: HIF-2α PAS-B (from UniProt Q99814)
